Assay [1] concerns the target T1, Tie2 (Homo sapiens, UniProt Q02763). Set-up: expressed in transfected cells; host or cells: U-251 MG stably transfected with Tie-2 cDNA (parental U-251 MG is Tie2-negative); also A172 cells with endogenous Tie2. The following applies: Tournaire et al. (2004); cited from earlier work.
The target in assay [2] is T1, Tie2. Briefly: Binding of T4 peptide to Tie2. The following applies: U-251 MG isogenic system and A172. Details: expressed in transfected cells; host or cells: U-251 MG stably transfected with Tie-2 cDNA (parental U-251 MG is Tie2-negative); also A172 cells with endogenous Tie2. The text has this: Testing the binding of the proposed Tie2-ligand, T4, the inventors synthesized the peptide linked to FAM signal that was suitable for flow cytometric detection. Peptide was synthesized by automatic solid phase chemistry using Fmoc strategy. The N-terminal aminohexanoic acid was labeled by coupling 5(6)-carboxyfluorescein. Peptides were purified to >98% purity by reverse phase HPLC.

Another assay has as its system P-MAPK. The assay is described as follows: P-MAPK inhibition. The assay is classed as cell-based, human. The following applies: U-87 MG cells. An excerpt: Although the correlation between MAPK activity and Ad-E1A-COX ability to replicate has been shown (Ahmed et al., 2003), the inventors have designed studies to assess the ability of retargeted constructs to replicate in glioma cells with high or low MAPK activity. To characterize the effects of the insertion of the 3′ UTR on E1A expression, inhibitors of kinases signaling, PD98059 (p42/p44 MAPK inhibitor), and for specificity testing: SB203580 (p38 MAPK inhibitor) and LY294002 (PI3K inhibitor) will be used. The inventors will use an isogenic U-87 MG system, containing a stably integrated, IPTG-inducible activated Ha-rasVal12 cDNA (Sheng et al., 2000). This model system is based in cells that only differ in the expression of an activated variant of the Hras oncogene, Ha-rasVal12 (Sheng et al., 2000). The will assess whether PTGS2 3′ UTR-mediated Ad-E1A-COX-Tie2 depends on the P-MAPK pathway. […] The replication capability of Ad-E1A-COX-Tie2 in U87-MG cells untreated and treated with PD98059 (and the control inhibitors) will be assessed. The inventors contemplate that inhibition of P-MAPK activity by PD98059 will greatly reduce the ability Ad-E1A-COX-Tie2 to replicate even with high expression of Ha-rasVal12 induced by IPTG in the isogenic U-87 MG. […]

Another assay deals with Dok-R. Briefly: Tie2 association with Dok-R. The assay is classed as cell-based, human. The following applies: stable transfected Tie2 U-251 MG. The text has this: Tie2 can also recruit additional signaling molecules that participate in cellular pathways that affect the shape and migratory properties of cells. In this regard, the Tie2-associated docking protein Dok-R can potentiate NCK-dependent endothelial cell migration in response to Ang1 (Master et al., 2001; Jones et al., 2003).

The next assay deals with Ras. The assay is described as follows: Ras activity (Ras-GTP). Type of assay: cell-based, human. The following applies: U-87 MG. Here is the method: In addition, the inventors have obtained data regarding the upstream effector of p42/p44 MAPK, Ras, by analyzing Ras activity in Ang1-estimulated U-87 MG cells. Ras activity, which detects active GTP-bound Ras, was performed by immunoprecipitation of Ras-Raf complexes (contains only active Ras), and consequent western blotting detection of Ras-GTP molecule.

For assay [3], the system named is ERK1 (p44MAPK) and ERK2 (p42MAPK). The assay is described as follows: ERK1/2 (p42/p44 MAPK) phosphorylation, Western blot. Type of assay: cell-based, human. Here is the method:
HUVEC and U-87 MG cells were mock-, AdCMV- or AdAng-2-Infected. 24 hours later they were overnights serum-starved, and then stimulated with […] for 10 min. Cell lysates were collected and analyzed by Western blotting for expression of phospho- and total p42/p44 MAPK. Ang-1 increased ERK 1/2 phosphorylation what was inhibited by the viral-transduced Ang-2.
The Ang-2/Ang-1/Tie2 system has been studied in endothelial cells, and different pathways have been reported as involved in the cascade signaling; these include phosphotidylinositol […] (PI3-K), focal adhesion kinase, Raf/Ras/mitogen-activated protein kinase (MAPK), and Dok-R/Dok-2/Nck/Pak (Yoon et al., 2003). […] These cascades modulate protein synthesis and/or transcriptional activation. […] To measure MAPK activity, the inventors measured the degree of phosphorylation of two MAPKs, ERK1 (p44MAPK) and ERK2 (p42MAPK).
The Ang-2/Ang1/Tie2 system has been studied in endothelial cells, and different pathways have been reported as involved in the cascade signaling. […] MAPK activity was measured by the degree of phosphorylation of two MAPKs, ERK1 (p44^MAPK) and ERK2 (p42^MAPK).
For orientation: A western blot detects proteins with antibodies after separation by electrophoresis.

For the next assay, the system named is Akt. Briefly: Akt phosphorylation. The assay is classed as cell-based, human. The following applies: U-87 MG, 100-500 ng/ml. The text has this: Consistant with previous reports, Ang-1/Tie signaling in endothelial cells in vitro involves PI3K/Akt activation (DeBusk et al., 2004; Papapetropoulos et al., 2000).
The subject of assay [4] is U-87 MG cells. Briefly: Glioma cell adhesion assay. Type of assay: cell-based, human. The following applies: 1 hr. An excerpt: It was reported that Ang1 promotes adhesion of Tie2+ hematopoietic stem cells to fibronectin and collagen and also promotes the interaction of endothelial cells with surrounding mesenchymal cells and the extracellular matrix (Davis et al., 1996; Suri et al., 1996; Arai et al., 2004). Therefore, the inventors analyzed the effects of Ang1/Tie2 signalling on glioma adhesion. Briefly, 96-well dishes were coated for 2 hr at room temperature (RT) with rAng1 diluted in PBS. Wells were then blocked for 30 min at RT with 0.5% heat-inactivated BSA in PBS (80° C. for 10 min) and washed three times with PBS before adding cells. U-87 MG cells were harvested and resuspended. 30,000 cells were seeded/well, and the plate was incubated at 37° C. for 1 hr. Nonadherent cells were removed and attached cells were fixed in 4% paraformaldehyde and stained with 0.2% crystal violet. Cells were solubilized in DMSO and absorbance of each well was read at 570 nm. […] Similar results were obtained when Tie2− and Tie2+U-251 MG were used. In addition, the possibility of Ang1-induced adhesion has been assessed. For that study, the wells were coated with several ECM and then, U-87 MG cells that were previously stimulated with Ang1 (BSA control), were plated on those wells. […]

Assay [5] deals with U-87 MG cells. The assay is described as follows: Chemotactic migration assay (Transwell). The assay is classed as cell-based, human. The following applies: 24 h. The procedure:
Witzenbichler et al. (1998) have reported the chemotactic properties of Ang1 for Tie2-endothelial cells. A chemotaxis assay was performed in the presence or absence of Ang1. Incubation with various concentrations of Ang1 enhanced chemotactic migration of U-87 MG cells. Migration assay was performed as described previously (Gomez-Manzano, 2003). Briefly, the lower surface of the filter was coated with gelatin. 600 μl of DMEM/F-12 (1:1) containing rAng1 and 0.1% BSA was added into lower compartment of the Transwell chamber, and 100 μl of cell suspension was added in the upper chamber. After 24 h of incubation, the filters were fixed, stained with H/E, and the cells on the lower surface of the filters were counted at 400× with Zeiss microscope. Assays were performed in triplicate. […] To distinguish between chemotactic and chemokinetics effect of Ang1 on U-87 MG, an analysis was performed where similar doses of Ang1 were present above and below the filter. Significant migration was observed only when a concentration gradient of Ang1 was established, a finding typical of factors inducing chemotaxis.

Assay [6] addresses T1, Tie2. Briefly: Tie2 phosphorylation, immunoprecipitation. Type of assay: cell-based. The following applies: U-87 MG, 500 ng/ml, 10 min. The procedure: To explore the regulation of Tie2 signaling by Angs in U-87 MG cells, Tie2 was immunoprecipitated from membrane fractions of U-87 MG cells treated with rAng1 (500 ng/ml) for 10 min, and phosphorylation of Tie2 was addressed using anti-phosphotyrosine antibody.

Where no end group is shown, it is not given here. FAM = 5(6)-carboxyfluorescein label; Ahx = NCCCCCC(=O)O

T1 sequence (Q02763 23-1124): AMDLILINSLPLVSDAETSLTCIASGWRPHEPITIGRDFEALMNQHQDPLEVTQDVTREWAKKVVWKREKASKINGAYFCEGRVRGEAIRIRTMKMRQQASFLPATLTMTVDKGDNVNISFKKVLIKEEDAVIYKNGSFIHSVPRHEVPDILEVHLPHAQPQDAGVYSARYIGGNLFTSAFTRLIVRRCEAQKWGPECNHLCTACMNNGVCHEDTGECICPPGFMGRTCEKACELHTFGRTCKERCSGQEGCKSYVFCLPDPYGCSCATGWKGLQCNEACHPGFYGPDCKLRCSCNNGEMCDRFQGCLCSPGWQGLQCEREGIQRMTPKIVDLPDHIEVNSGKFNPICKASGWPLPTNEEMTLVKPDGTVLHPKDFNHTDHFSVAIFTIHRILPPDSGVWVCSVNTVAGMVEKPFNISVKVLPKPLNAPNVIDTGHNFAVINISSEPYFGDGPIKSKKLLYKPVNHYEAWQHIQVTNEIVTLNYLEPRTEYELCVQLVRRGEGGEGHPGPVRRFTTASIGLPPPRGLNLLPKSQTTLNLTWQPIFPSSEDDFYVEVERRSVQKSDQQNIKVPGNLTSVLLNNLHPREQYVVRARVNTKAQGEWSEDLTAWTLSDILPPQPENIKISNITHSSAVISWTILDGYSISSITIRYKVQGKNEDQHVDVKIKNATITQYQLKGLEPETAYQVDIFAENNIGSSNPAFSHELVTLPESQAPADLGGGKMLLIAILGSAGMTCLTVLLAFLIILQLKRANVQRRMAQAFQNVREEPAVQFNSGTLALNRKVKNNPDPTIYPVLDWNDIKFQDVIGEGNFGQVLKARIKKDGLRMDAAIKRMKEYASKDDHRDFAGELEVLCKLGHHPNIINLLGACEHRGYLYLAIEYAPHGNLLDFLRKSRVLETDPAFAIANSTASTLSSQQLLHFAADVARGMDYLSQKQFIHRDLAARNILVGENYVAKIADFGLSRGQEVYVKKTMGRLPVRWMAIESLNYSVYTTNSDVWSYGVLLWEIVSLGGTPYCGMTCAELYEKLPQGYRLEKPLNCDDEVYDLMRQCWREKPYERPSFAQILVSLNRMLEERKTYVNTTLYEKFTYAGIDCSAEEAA

Consider “NLLMAAS ({FAM-Ahx}-NLLMAAS; also: 5(6)-carboxyfluorescein label (site not given here)) [T4]”, for which the “binding of Ang1 and Ang-2 to the Tie2 receptor” value with Tie2 [1] is “completely abolished”. Moreover, in the assay with Tie2 [2], the “binding to cell membrane by flow cytometry” value is recorded as “binds preferentially to the membrane of cells overexpressing Tie2”.

For `COc1cccc(-c2cc(=O)c3ccccc3o2)c1N` [PD98059], the P-MAPK expression entry with P-MAPK is recorded as “effectively inhibited P-MAPK expression”.

B1: rhAng-1: recombinant angiopoietin-1 protein (protein)
chain: SNQRRSPENSGRRYNRIQHGQCAYTFILPEHDGNCRESTTDQYNTNALQRDAPHVEPDFSSQKLQHLEHVMENYTQWLQKLENYIVENMKSEMAQIQQNAVQNHTATMLEIGTSLLSQTAEQTRKLTDVETQVLNQTSRLEIQLLENSLSTYKLEKQLLQQTNEILKIHEKNSLLEHKILEMEGKHKEELDTLKEEKENLQGLVTRQTYIIQELEKQLNRATTNNSVLQKQQLELMDTVHNLVNLCTKEGVLLKGGKREEEKPFRDCADVYQAGFNKSGIYTIYINNMPEPKKVFCNMDVNGGGWTVIQHREDGSLDFQRGWKEYKMGFGNPSGEYWLGNEFIFAITSQRQYMLRIELMDWEGNRAYSQYDRFHIGNEKQNYRLYLKGHTGTAGKQSSLILHGADFSTKDADNDNCMCKCALMLTGGWWFDACGPSNLNGMFYTAGQNHGKLNGIKWHYFKGPSYSLRSTTMMIRPLDF
Take B1: the “Tie2 association with Dok-R” value in the assay with Dok-R is recorded as “results in Tie2 association with Dok-R protein”. For the same molecule, the Ras activity result with Ras is “Ras activity increases”. Moreover, the ERK1/2 phosphorylation result in assay [3] (HU-VEC-C endothelial cells, 100 ng/ml) is “increased ERK1/2 phosphorylation”; in assay [3] (U-87 MG) it was “increased ERK1/2 phosphorylation”. Moreover, the Akt phosphorylation entry in the assay on Akt is reported as “did not modify the pattern of phosphorylation of the Akt molecule”. Moreover, the “adhesion of U-87 cells to Ang1-coated wells” value with U-87 MG cells [4] is on record as “increasing adhesion properties”. The chemotactic migration result with U-87 MG cells [5] is “significant increase in directed migration”. The Tie2 phosphorylation entry in the assay with Tie2 [6] is “induced phosphorylation of Tie2”.

The values are drawn from patent publication US10080774B2, “Oncolytic adenovirus armed with therapeutic genes” (priority 2002, dated 2018).
